Measurements reported in patent US20140087995A1 (published 2014).
Numbered stars: 1 amine (or outer) side, 2 acyl side, 3 side chain; on linkers, the order of the positions; unused ones are H or OH. Bridge positions count the residues as written; N and C are the ends. Side chains are listed from the residue outwards. Ends that are not written are not given here. * marks the point of attachment. C20 diacid = O=C(O)CCCCCCCCCCCCCCCCCCC(=O)*; γGlu = O=C(O)[C@H](CCC(=O)[*:2])N[*:1]

T1: human calcitonin receptor (human, UniProt P30988 25-474)
T1 construct: whole, on cells; also called hCTR; hCT
T1 sequence (looked up): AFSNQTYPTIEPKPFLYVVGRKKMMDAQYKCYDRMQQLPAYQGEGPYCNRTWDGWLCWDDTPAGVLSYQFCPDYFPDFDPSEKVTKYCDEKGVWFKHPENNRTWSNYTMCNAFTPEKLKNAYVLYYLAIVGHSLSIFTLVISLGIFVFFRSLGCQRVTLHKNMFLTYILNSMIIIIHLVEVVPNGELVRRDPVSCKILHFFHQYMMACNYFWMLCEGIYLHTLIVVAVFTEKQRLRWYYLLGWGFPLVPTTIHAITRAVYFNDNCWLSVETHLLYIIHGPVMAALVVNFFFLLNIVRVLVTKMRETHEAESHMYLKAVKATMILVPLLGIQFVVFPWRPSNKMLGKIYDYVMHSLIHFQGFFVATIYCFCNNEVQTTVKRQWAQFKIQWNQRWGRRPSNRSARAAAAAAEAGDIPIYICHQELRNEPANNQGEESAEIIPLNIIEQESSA


Legend:
[1] = target: T1, human calcitonin receptor; test: SPA radioligand competition (125I-calcitonin), membranes of BHK cells with human calcitonin receptor
Outline: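 BHK hCTR membranes 35 ng/μL + SPA beads 0.05 mg/well; buffer 50 mM Hepes pH 7.4, 1 mM CaCl2, 5 mM MgCl₂, 0.1% OA, 0.02% Tween20. 120 min, 25° C., shaking. Scintillation count; IC50 by one-site binding competition.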

[2] = target: T1, human calcitonin receptor; test: ratio of IC50 at human calcitonin receptor to IC50 at human amylin receptor (SPA competition assays)
Outline: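 Competition binding by SPA uses membrane preparations (35 ng/μL final) in pH 7.4 Hepes buffer with 1 mM CaCl2 and 5 mM MgCl₂. Incubation lasts 120 min at 25° C, and IC₅₀ comes from one-site fitting.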

| Binder | IC50 [1] | Ratio hCT/hAmylin binding [2] |
| --- | --- | --- |
| K([γGlu-C20 diacid])CNTATCATQRLANFLRHSSPNFGAIPSSTNVGRNTY-NH2 (disulfide 2-7; N-terminus assumed; SMILES CC[C@H](C)[C@H](NC(=O)[C@H](C)NC(=O)CNC(=O)[C@H](Cc1ccccc1)NC(=O)[C@H](CC(N)=O)NC(=O)[C@@H]1CCCN1C(=O)[C@H](CO)NC(=O)[C@H](CO)NC(=O)[C@H](Cc1c[nH]cn1)NC(=O)[C@H](CCCNC(=N)N)NC(=O)[C@H](CC(C)C)NC(=O)[C@H](Cc1ccccc1)NC(=O)[C@H](CC(N)=O)NC(=O)[C@H](C)NC(=O)[C@H](CC(C)C)NC(=O)[C@H](CCCNC(=N)N)NC(=O)[C@H](CCC(N)=O)NC(=O)[C@@H](NC(=O)[C@H](C)NC(=O)[C@@H]1CSSC[C@H](NC(=O)[C@@H](N)CCCCNC(=O)CC[C@H](NC(=O)CCCCCCCCCCCCCCCCCCC(=O)O)C(=O)O)C(=O)N[C@@H](CC(N)=O)C(=O)N[C@@H]([C@@H](C)O)C(=O)N[C@@H](C)C(=O)N[C@@H]([C@@H](C)O)C(=O)N1)[C@@H](C)O)C(=O)N1CCC[C@H]1C(=O)N[C@@H](CO)C(=O)N[C@@H](CO)C(=O)N[C@H](C(=O)N[C@@H](CC(N)=O)C(=O)N[C@H](C(=O)NCC(=O)N[C@@H](CCCNC(=N)N)C(=O)N[C@@H](CC(N)=O)C(=O)N[C@H](C(=O)N[C@@H](Cc1ccc(O)cc1)C(N)=O)[C@@H](C)O)C(C)C)[C@@H](C)O, also called compound 79) [N^ε1-[(4S)-4-carboxy-4-(19-carboxynonadecanoylamino)butanoyl]-[Arg17,Pro21,Pro27,Arg34]-h-amylin] | 36.4 nM | 46.1 |
| K([γGlu-C20 diacid])CNTATCATQRLAEFLRHSSPNFGAIPSSTNVGRETY-NH2 (disulfide 2-7; N-terminus assumed; SMILES CC[C@H](C)[C@H](NC(=O)[C@H](C)NC(=O)CNC(=O)[C@H](Cc1ccccc1)NC(=O)[C@H](CC(N)=O)NC(=O)[C@@H]1CCCN1C(=O)[C@H](CO)NC(=O)[C@H](CO)NC(=O)[C@H](Cc1c[nH]cn1)NC(=O)[C@H](CCCNC(=N)N)NC(=O)[C@H](CC(C)C)NC(=O)[C@H](Cc1ccccc1)NC(=O)[C@H](CCC(=O)O)NC(=O)[C@H](C)NC(=O)[C@H](CC(C)C)NC(=O)[C@H](CCCNC(=N)N)NC(=O)[C@H](CCC(N)=O)NC(=O)[C@@H](NC(=O)[C@H](C)NC(=O)[C@@H]1CSSC[C@H](NC(=O)[C@@H](N)CCCCNC(=O)CC[C@H](NC(=O)CCCCCCCCCCCCCCCCCCC(=O)O)C(=O)O)C(=O)N[C@@H](CC(N)=O)C(=O)N[C@@H]([C@@H](C)O)C(=O)N[C@@H](C)C(=O)N[C@@H]([C@@H](C)O)C(=O)N1)[C@@H](C)O)C(=O)N1CCC[C@H]1C(=O)N[C@@H](CO)C(=O)N[C@@H](CO)C(=O)N[C@H](C(=O)N[C@@H](CC(N)=O)C(=O)N[C@H](C(=O)NCC(=O)N[C@@H](CCCNC(=N)N)C(=O)N[C@@H](CCC(=O)O)C(=O)N[C@H](C(=O)N[C@@H](Cc1ccc(O)cc1)C(N)=O)[C@@H](C)O)C(C)C)[C@@H](C)O) | 6.62 nM | 28.5 |
| K([γGlu-C20 diacid])CNTATCATQRLAEFLRHSSPNFGAIPSSTNVGPHTY-NH2 (disulfide 2-7) | 3.8 nM | 21.2 |

The remaining binders from weak to strong by IC50 [1], led by results:

| IC50 [1] | Ratio hCT/hAmylin binding [2] | Binder |
| --- | --- | --- |
| 137 nM | 146 | K([γGlu-C20 diacid])CNTATCATQRLARFLRHSSPNFGAIPSSTNVGSNTY-NH2 (disulfide 2-7; N-terminus assumed; SMILES CC[C@H](C)[C@H](NC(=O)[C@H](C)NC(=O)CNC(=O)[C@H](Cc1ccccc1)NC(=O)[C@H](CC(N)=O)NC(=O)[C@@H]1CCCN1C(=O)[C@H](CO)NC(=O)[C@H](CO)NC(=O)[C@H](Cc1c[nH]cn1)NC(=O)[C@H](CCCNC(=N)N)NC(=O)[C@H](CC(C)C)NC(=O)[C@H](Cc1ccccc1)NC(=O)[C@H](CCCNC(=N)N)NC(=O)[C@H](C)NC(=O)[C@H](CC(C)C)NC(=O)[C@H](CCCNC(=N)N)NC(=O)[C@H](CCC(N)=O)NC(=O)[C@@H](NC(=O)[C@H](C)NC(=O)[C@@H]1CSSC[C@H](NC(=O)[C@@H](N)CCCCNC(=O)CC[C@H](NC(=O)CCCCCCCCCCCCCCCCCCC(=O)O)C(=O)O)C(=O)N[C@@H](CC(N)=O)C(=O)N[C@@H]([C@@H](C)O)C(=O)N[C@@H](C)C(=O)N[C@@H]([C@@H](C)O)C(=O)N1)[C@@H](C)O)C(=O)N1CCC[C@H]1C(=O)N[C@@H](CO)C(=O)N[C@@H](CO)C(=O)N[C@H](C(=O)N[C@@H](CC(N)=O)C(=O)N[C@H](C(=O)NCC(=O)N[C@@H](CO)C(=O)N[C@@H](CC(N)=O)C(=O)N[C@H](C(=O)N[C@@H](Cc1ccc(O)cc1)C(N)=O)[C@@H](C)O)C(C)C)[C@@H](C)O, also called compound 83) [N^ε1-[(4S)-4-carboxy-4-(19-carboxynonadecanoylamino)butanoyl]-[Arg14,Arg17,Pro21,Pro27]-h-amylin] |
| 6.86 nM | 46.3 | K([γGlu-C20 diacid])CNTATCATQRLAAFLRHSSPNFGAIPSSTNVGPNTY-NH2 (disulfide 2-7; N-terminus assumed; SMILES CC[C@H](C)[C@H](NC(=O)[C@H](C)NC(=O)CNC(=O)[C@H](Cc1ccccc1)NC(=O)[C@H](CC(N)=O)NC(=O)[C@@H]1CCCN1C(=O)[C@H](CO)NC(=O)[C@H](CO)NC(=O)[C@H](Cc1c[nH]cn1)NC(=O)[C@H](CCCNC(=N)N)NC(=O)[C@H](CC(C)C)NC(=O)[C@H](Cc1ccccc1)NC(=O)[C@H](C)NC(=O)[C@H](C)NC(=O)[C@H](CC(C)C)NC(=O)[C@H](CCCNC(=N)N)NC(=O)[C@H](CCC(N)=O)NC(=O)[C@@H](NC(=O)[C@H](C)NC(=O)[C@@H]1CSSC[C@H](NC(=O)[C@@H](N)CCCCNC(=O)CC[C@H](NC(=O)CCCCCCCCCCCCCCCCCCC(=O)O)C(=O)O)C(=O)N[C@@H](CC(N)=O)C(=O)N[C@@H]([C@@H](C)O)C(=O)N[C@@H](C)C(=O)N[C@@H]([C@@H](C)O)C(=O)N1)[C@@H](C)O)C(=O)N1CCC[C@H]1C(=O)N[C@@H](CO)C(=O)N[C@@H](CO)C(=O)N[C@H](C(=O)N[C@@H](CC(N)=O)C(=O)N[C@H](C(=O)NCC(=O)N1CCC[C@H]1C(=O)N[C@@H](CC(N)=O)C(=O)N[C@H](C(=O)N[C@@H](Cc1ccc(O)cc1)C(N)=O)[C@@H](C)O)C(C)C)[C@@H](C)O, also called compound 94) |
| 6.3 nM | 38.6 | K([γGlu-C20 diacid])CNTATCATQRLAEFLRHSSPNFGAIPSSTNVGPRTY-NH2 (disulfide 2-7; N-terminus assumed; SMILES CC[C@H](C)[C@H](NC(=O)[C@H](C)NC(=O)CNC(=O)[C@H](Cc1ccccc1)NC(=O)[C@H](CC(N)=O)NC(=O)[C@@H]1CCCN1C(=O)[C@H](CO)NC(=O)[C@H](CO)NC(=O)[C@H](Cc1c[nH]cn1)NC(=O)[C@H](CCCNC(=N)N)NC(=O)[C@H](CC(C)C)NC(=O)[C@H](Cc1ccccc1)NC(=O)[C@H](CCC(=O)O)NC(=O)[C@H](C)NC(=O)[C@H](CC(C)C)NC(=O)[C@H](CCCNC(=N)N)NC(=O)[C@H](CCC(N)=O)NC(=O)[C@@H](NC(=O)[C@H](C)NC(=O)[C@@H]1CSSC[C@H](NC(=O)[C@@H](N)CCCCNC(=O)CC[C@H](NC(=O)CCCCCCCCCCCCCCCCCCC(=O)O)C(=O)O)C(=O)N[C@@H](CC(N)=O)C(=O)N[C@@H]([C@@H](C)O)C(=O)N[C@@H](C)C(=O)N[C@@H]([C@@H](C)O)C(=O)N1)[C@@H](C)O)C(=O)N1CCC[C@H]1C(=O)N[C@@H](CO)C(=O)N[C@@H](CO)C(=O)N[C@H](C(=O)N[C@@H](CC(N)=O)C(=O)N[C@H](C(=O)NCC(=O)N1CCC[C@H]1C(=O)N[C@@H](CCCNC(=N)N)C(=O)N[C@H](C(=O)N[C@@H](Cc1ccc(O)cc1)C(N)=O)[C@@H](C)O)C(C)C)[C@@H](C)O) |
| 1.86 nM | 13.3 | K([γGlu-C20 diacid])CNTATCATQRLAEFLRHSSPNFGAIPSSTNVGPETY-NH2 (disulfide 2-7; N-terminus assumed; SMILES CC[C@H](C)[C@H](NC(=O)[C@H](C)NC(=O)CNC(=O)[C@H](Cc1ccccc1)NC(=O)[C@H](CC(N)=O)NC(=O)[C@@H]1CCCN1C(=O)[C@H](CO)NC(=O)[C@H](CO)NC(=O)[C@H](Cc1c[nH]cn1)NC(=O)[C@H](CCCNC(=N)N)NC(=O)[C@H](CC(C)C)NC(=O)[C@H](Cc1ccccc1)NC(=O)[C@H](CCC(=O)O)NC(=O)[C@H](C)NC(=O)[C@H](CC(C)C)NC(=O)[C@H](CCCNC(=N)N)NC(=O)[C@H](CCC(N)=O)NC(=O)[C@@H](NC(=O)[C@H](C)NC(=O)[C@@H]1CSSC[C@H](NC(=O)[C@@H](N)CCCCNC(=O)CC[C@H](NC(=O)CCCCCCCCCCCCCCCCCCC(=O)O)C(=O)O)C(=O)N[C@@H](CC(N)=O)C(=O)N[C@@H]([C@@H](C)O)C(=O)N[C@@H](C)C(=O)N[C@@H]([C@@H](C)O)C(=O)N1)[C@@H](C)O)C(=O)N1CCC[C@H]1C(=O)N[C@@H](CO)C(=O)N[C@@H](CO)C(=O)N[C@H](C(=O)N[C@@H](CC(N)=O)C(=O)N[C@H](C(=O)NCC(=O)N1CCC[C@H]1C(=O)N[C@@H](CCC(=O)O)C(=O)N[C@H](C(=O)N[C@@H](Cc1ccc(O)cc1)C(N)=O)[C@@H](C)O)C(C)C)[C@@H](C)O) |
